Changes are numbered by the printed parent chain. Names may count otherwise. Like-named read-outs stand apart in the source and are kept apart here.
B1: L2P12 G9: acrylodan-labeled rI-FABP-L72A mutein: M18 L, G31 WT, F55 WT, A73 V (protein, UniProt P02693 2-132, looked up, variant M18L L72A A73V)
Fatty acid-binding protein, …: AFDGTWKVDRNENYEKFLEKMGINVVKRKLGAHDNLKLTITQEGNKFTVKESSNFRNIDVVFELGVDFAYSAVDGTELTGTWTMEGNKLVGKFKRVDNGKELIAVREISGNELIQTYTYEGVEAKRIFKKE
modifications: acrylodan label
notes: acrylodan-labeled rI-FABP-L72A mutein: M18 L, G31 WT, F55 WT, A73 V
B2: L5P16 H4: UCB-responsive probe from rI-FABP-L72A; mutations 126K 73F 72A (protein, UniProt P02693 2-132, looked up, variant L72A A73F R126K)
Fatty acid-binding protein, …: B1 Fatty acid-binding protein, … with L18M, V73F, R126K
modifications: acrylodan label
notes: UCB-responsive probe from rI-FABP-L72A; mutations 126K 73F 72A
B3: L2P14F7: UCB probe from rI-FABP-L72A; mutations 18G 31 M 72A (protein, UniProt P02693 2-132, looked up, variant M18G G31M L72A)
Fatty acid-binding protein, …: B1 Fatty acid-binding protein, … with L18G, G31M, V73A
modifications: fluorescent label
notes: UCB probe from rI-FABP-L72A; mutations 18G 31 M 72A
B4: L2P21 C1: acrylodan-labeled rI-FABP-L72A mutein: M18 I, G31 Y, F55 WT, A73 V (protein, UniProt P02693 2-132, looked up, variant M18I G31Y L72A A73V)
Fatty acid-binding protein, …: B1 Fatty acid-binding protein, … with L18I, G31Y
modifications: acrylodan label
notes: acrylodan-labeled rI-FABP-L72A mutein: M18 I, G31 Y, F55 WT, A73 V
B5: L2P22 B1: UCB-responsive probe from rI-FABP-L72A; mutations 18Y 31V 55V 72A (protein, UniProt P02693 2-132, looked up, variant M18Y G31V F55V L72A)
Fatty acid-binding protein, …: B1 Fatty acid-binding protein, … with L18Y, G31V, F55V, V73A

Columns and labels:
[1] = Probe fluorescence ratio response to arachidonate:BSA complex, relative to ADIFAB2 (ΔR/ΔRAD2); format: binding; details: fluorescence response (R-Ro) relative to ADIFAB2, arachidonate
In short: (§1)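 Mutant probes were screened against fatty acid:BSA complexes made by adding fatty acid sodium salts at pH 11 to BSA in HEPES, titrated until ADIFAB2 gave ΔR ≈0.4 ([FFAu] 100–1000 nM). Wells held 6 μM BSA; excitation 375 nm, emission 550/457 nm, background-subtracted.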

[2] = Probe fluorescence ratio response to linolenate:BSA complex, relative to ADIFAB2 (ΔR/ΔRAD2); format: binding; details: fluorescence response (R-Ro) relative to ADIFAB2, linolenate
In short: as §1

[3] = Probe fluorescence ratio response to linoleate:BSA complex, relative to ADIFAB2 (ΔR/ΔRAD2); format: binding; details: fluorescence response (R-Ro) relative to ADIFAB2, linoleate
In short: as §1

[4] = Probe fluorescence ratio response to oleate:BSA complex, relative to ADIFAB2 (ΔR/ΔRAD2); format: binding; details: fluorescence response (R-Ro) relative to ADIFAB2, oleate
In short: as §1

[5] = Probe fluorescence ratio response to palmitate:BSA complex, relative to ADIFAB2 (ΔR/ΔRAD2); format: binding; details: fluorescence response (R-Ro) relative to ADIFAB2, palmitate
In short: as §1

[6] = Probe fluorescence ratio response to palmitoleate:BSA complex, relative to ADIFAB2 (ΔR/ΔRAD2); format: binding
[7] = Probe fluorescence ratio response to stearate:BSA complex, relative to ADIFAB2 (ΔR/ΔRAD2); format: binding
[8] = Mutant probe screening: baseline fluorescence ratio Ro and fatty acid response phenotype; format: binding; details: 7 FFA: AA, LNA, LA, OA, PA, POA, SA
Protocol: The intensity ratio (“R” value) for a given probe is determined. The ratio is calculated using the following formula: R=Fλ1/Fλ2 wherein, Fλ1, is the measured fluorescence intensities (intensity of sample with probe present minus intensity of sample without probe present) at wavelength 1 and Fλ2 is the measured fluorescence intensities (intensity of sample with probe present minus intensity of sample without probe present) at wavelength 2. Then, for a given probe, ΔR, the difference in R value between the measurement in the presence of the analyte and in the absence of the analyte, is calculated as follows: ΔR=R+analyte−R0 The ΔR value for a given probe is then compared to a reference probe, for example, ADIFAB or ADIFAB2, by ΔR/ΔRreference. […] Measurements of fluorescence intensities are obtained using standard techniques.
Plates were prepared and read in two stages. […] The background fluorescence was then measured at the same wavelengths as used for ADIFAB2 using a Fluorolog-3 spectrofluorometer with an external Micromax 384 fluorescence plate reader (Jobin Yvon). In the second stage, 30 μL aliquots of the mutant probes were added to multiple wells of the plate, one for each fatty acid and one with fatty acid free BSA only, and the fluorescence intensity at each wavelength was again measured on the plate reader. […]

[9] = Screening of FFA-insensitive probes for response to UCB:BSA complexes (ΔI/Io); format: binding; details: fractional change in fluorescence intensity; for ΔI/Io 1:1 UCB:BSA 440 nm / ΔI/Io 1:1 UCB:BSA 500 nm: UCB:BSA 1:1; for ΔI/Io 1:1 UCB:BSA 440 nm / ΔI/Io 1:2 UCB:BSA 440 nm: emission 440 nm; for ΔI/Io 1:1 UCB:BSA 500 nm / ΔI/Io 1:2 UCB:BSA 500 nm: emission 500 nm; for ΔI/Io 1:2 UCB:BSA 440 nm / ΔI/Io 1:2 UCB:BSA 500 nm: UCB:BSA 1:2
Protocol: A probe for unbound unconjugated bilirubin (UCBu) was developed and used to measure concentrations of UCBu in plasma spiked with a defined quantity of unconjugated bilirubin (UCB). Using 384-well plates, 335 mutant probes that were insensitive to FFA were screened for their response to UCB:BSA complexes at UCB:BSA ratios of 1:1 and 1:2 in aqueous buffer. All probes were prepared from rI-FABP-L72A with 1 to 5 mutations. Screening was conducted by comparing the fractional change in fluorescence intensity (ΔI/Io, where ΔI is the difference in probe intensity in the presence and absence of UCB and Io is the intensity in the absence of UCB) for the probes with that for ADIFAB2. This value was calculated for two emission wavelengths: 440 and 500 nm. […] The emitted fluorescence of these probes is quenched by binding of UCB.

[10] = Binding isotherm: probe titrated with UCB, Kd
Protocol: (§2) Larger preparations of select probes were prepared for quantitative determination of binding affinities. Binding isothermns were performed by measuring the fluorescence intensity for 1 μM of a given probe as the probe was titrated with known quantities of UCB. […] Table 3 lists the Kd values and mutations for some example probes. […] This property was confirmed by titration of a mixture of 0.5 μM UCB and 1 μM L2P14F7 with sodium oleate. […] Oleic acid is the most abundant FFA in serum, and measurements of normal serum samples indicate that typical unbound concentrations of oleic acid are less than 1 nM. By using non-responsive probes from FFA screening to conduct a secondary screening with other unbound analytes, a UCB-sensitive probe that has a negligible response to the major FFA in blood has been generated from a rI-FABP-L72A mutant.

[11] = Titration of UCB and probe mixture with sodium oleate; format: binding; details: mixture of 0.5 μM UCB and 1 μM probe; after 1 μM total oleate added (FIG. 4)
Protocol: as §2

[12] = Probe response to plasma samples from healthy adult donors, with and without 5 μM UCB
Protocol: The response of L2P14F7 to plasma samples from healthy adult donors, for which the UCBu concentration is expected to be about 1 nM or less, was measured (FIG. 5). Samples were diluted to 1% by volume in pH 7.4 HEPES buffer.

[13] = fluorescence response (R-Ro) relative to ADIFAB2
[14] = fluorescence response (R-Ro) relative to ADIFAB2, listed as L2P12G9
[15] = UCB, at 22° C., read-out: Kd (nM) at 22° C.
[16] = fluorescence response (R-Ro) relative to ADIFAB2, listed as L2P21C1

Kd [10, 15] [nM]	Molecule	ΔR/ΔRAD2 AA [1]	ΔR/ΔRAD2 LNA [2]	ΔR/ΔRAD2 LA [3]	ΔR/ΔRAD2 OA [4]	ΔR/ΔRAD2 PA [5]	ΔR/ΔRAD2 POA [6, 13]	ΔR/ΔRAD2 SA [7, 13]	phenotype (fatty acid response) relative to ADIFAB2 [8]	ΔI/Io 1:1 UCB:BSA 440 nm [9]	ΔI/Io 1:1 UCB:BSA 500 nm [9]	ΔI/Io 1:2 UCB:BSA 440 nm [9]	ΔI/Io 1:2 UCB:BSA 500 nm [9]	further results
	B1	0.54	0.01	−0.07	0.07	0.03	−0.01	0.48	response only for AA and SA					ΔR/ΔRAD2 AA ([1]; listed as L2P12G9): 0.5; ΔR/ΔRAD2 LNA ([2]; listed as L2P12G9): 0.0; ΔR/ΔRAD2 LA ([3]; listed as L2P12G9): −0.1; ΔR/ΔRAD2 OA ([4]; listed as L2P12G9): 0.0; ΔR/ΔRAD2 PA ([5]; listed as L2P12G9): 0.0; ΔR/ΔRAD2 POA [6, 14]: 0.0; ΔR/ΔRAD2 SA [7, 14]: 0.4
390	B2									−0.69	−0.64	−0.37	−0.31	
	B3													Kd ([10]; non-linear fit to binding isotherm, 1 μM probe titrated with UCB (FIG. 3), read-out: Kd): 150 nM; response on titration with sodium oleate [11]: no change in response; response to plasma samples ([12]; healthy adult donors, samples diluted to 1% by volume in pH 7.4 HEPES buffer): Little to no response; probe fluorescence after spiking plasma samples with UCB ([12]; samples A and B spiked with 5 μM UCB): substantial decrease in the fluorescence
	B4	3.27	3.73	4.04	3.20	2.54	3.52	2.02	greater response for all 7 FFA					ΔR/ΔRAD2 AA ([1]; listed as L2P21C1): 2.8; ΔR/ΔRAD2 LNA ([2]; listed as L2P21C1): 3.1; ΔR/ΔRAD2 LA ([3]; listed as L2P21C1): 3.4; ΔR/ΔRAD2 OA ([4]; listed as L2P21C1): 2.7; ΔR/ΔRAD2 PA ([5]; listed as L2P21C1): 2.0; ΔR/ΔRAD2 POA [6, 16]: 2.9; ΔR/ΔRAD2 SA [7, 16]: 1.6
550	B5									−0.70	−0.68	−0.36	−0.35	
